According to US20230416326A1 (LETO LABORATORIES, published 2023):

Assays:
[1] = biological target: T1, IL-2/15R β and γ on Mo7e cells (UniProt P14784 27-551; P31785 23-369, limits assumed); assay: cell-based or functional assay
T1 sequence (looked up) 1: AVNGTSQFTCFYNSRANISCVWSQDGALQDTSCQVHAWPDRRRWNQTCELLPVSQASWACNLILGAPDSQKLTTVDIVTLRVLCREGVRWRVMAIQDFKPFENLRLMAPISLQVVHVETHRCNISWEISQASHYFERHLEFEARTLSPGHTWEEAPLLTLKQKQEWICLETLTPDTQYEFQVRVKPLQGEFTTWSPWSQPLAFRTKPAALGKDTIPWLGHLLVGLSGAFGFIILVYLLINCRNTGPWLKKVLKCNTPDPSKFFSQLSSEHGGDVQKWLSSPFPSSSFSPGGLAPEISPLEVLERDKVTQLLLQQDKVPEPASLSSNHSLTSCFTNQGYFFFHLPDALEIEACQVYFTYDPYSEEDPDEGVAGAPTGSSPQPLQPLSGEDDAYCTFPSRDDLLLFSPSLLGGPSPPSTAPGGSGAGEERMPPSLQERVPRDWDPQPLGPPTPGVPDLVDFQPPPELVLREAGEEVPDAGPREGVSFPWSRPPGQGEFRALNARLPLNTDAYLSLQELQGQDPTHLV
T1 sequence (looked up) 2: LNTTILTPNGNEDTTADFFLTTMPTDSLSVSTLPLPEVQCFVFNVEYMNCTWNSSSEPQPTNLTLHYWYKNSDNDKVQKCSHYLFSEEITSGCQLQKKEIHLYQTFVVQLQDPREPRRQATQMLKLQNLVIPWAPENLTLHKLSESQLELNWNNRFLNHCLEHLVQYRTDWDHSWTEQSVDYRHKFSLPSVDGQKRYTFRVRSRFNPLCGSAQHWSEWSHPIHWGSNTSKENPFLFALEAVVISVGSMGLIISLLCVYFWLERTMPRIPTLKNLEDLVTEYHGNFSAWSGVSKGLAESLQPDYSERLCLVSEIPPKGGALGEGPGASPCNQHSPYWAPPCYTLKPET

[2] = biological target: T2, IL2/15Rβ-Fc/Fc (UniProt P14784 27-240); assay: BLI (Octet RED96), receptor immobilised on sensor
T2 construct: Made in-house; The label 'Fc/Fc' is not explained; it is read here as one receptor-Fc chain paired with an Fc-only chain; also called IL2Rβ; CD122; not shown: Fc; second Fc chain implied by the label 'Fc/Fc'
Method: (§1) BLI was used to determine the affinity of a target protein for a receptor by a method with reference to (Estep, P et al., High throughput solution Based measurement of antibody-antigen affinity and epitope binning. MAbs, 2013.5 (2): p. 270-8). The receptor proteins IL-15Rα-his, IL2Rα-his, and IL2/15Rβ-Fc/Fc used in the experiment were each produced by the company of the present application, and both an IL-2 derivative without IL2Rα binding and an IL-2 complex without IL2Rα binding were prepared according to the description in Patent Publication CN111018961A. An IL-15(N72D)/Sushi-hIgG1Fc complex was prepared according to the literature (K.-p. Han et al./Cytokine 56 (2011) 804-810). A buffer was prepared according to the following formula: 10 mM HEPES, 150 mM NaCl, 3 mM EDTA, 0.1% BSA, and 0.05% tween20. Receptor proteins were each pre-immobilized in advance on a corresponding sensor. Then the steps of baseline, loading, baseline, association, and dissociation were conducted according to the established method (see Estep, P et al., High throughput solution Based measurement of antibody-antigen affinity and epitope binning. MAbs, 2013. 5 (2): p. 270-8). Data acquisition and analysis were conducted using the Fortebio Octet RED96 software Data acquisition 11.0 and Data analysis 11.0, respectively. Results are shown in Table 1 (the smaller the value, the stronger the affinity).

[3] = biological target: T3, IL-15Rα-his (Homo sapiens (Human), UniProt Q13261 31-205, limits assumed); assay: BLI (Octet RED96), receptor immobilised on sensor
T3 construct: also called interleukin-15 receptor alpha; not shown: his tag
Method: as §1

[4] = biological target: T4, IL2Rα-his (UniProt P01589 22-240, limits assumed); assay: BLI (Octet RED96), receptor immobilised on sensor
T4 construct: Made in-house; also called interleukin-2 receptor alpha; CD25; not shown: his tag
T4 sequence (looked up): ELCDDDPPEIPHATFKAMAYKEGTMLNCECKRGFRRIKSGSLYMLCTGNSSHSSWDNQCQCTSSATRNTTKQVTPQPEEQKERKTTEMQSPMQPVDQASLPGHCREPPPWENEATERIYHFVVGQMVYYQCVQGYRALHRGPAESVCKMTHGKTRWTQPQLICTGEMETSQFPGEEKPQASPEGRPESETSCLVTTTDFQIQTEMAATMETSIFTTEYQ
Method: as §1

[5] = biological target: T5, Sushi-hIgG4Fc; assay: co-expression in HEK293, purification, SEC-HPLC
T5 construct: IL15Rα Sushi domain fused to human IgG4 Fc; also called Sushi-Fc
Method: The IL-2/15 chimera 1 was co-expressed with each of the Sushi-hIgG1Fc, Sushi-hIgG4Fc, and Sushi-mlgg2aa.1Fc, and heterodimer complexes could be generated during expression, which were respectively named as complex 1, complex 2, and complex 3 and all carried an Fc tag. Mabselect sure (Protein A, GE healthcare) was used for affinity purification, and a purification method was in accordance with instructions of a purification packing. Then further purification was conducted by gel filtration chromatography (GFC) (Superdex200 […], GE Healthcare) to obtain a protein with high purity, and the aggregate was removed. The purity analysis was conducted using a high-performance liquid chromatography (HPLC) molecular sieve column (SEC-HPLC), and the results are shown in FIGS. 1A-1C.

B1: Complex 3 (heterodimer complex of IL-2/15 chimera 1 and Sushi-mIgG2aa.1Fc) (Fc fusion)
chain 1: APTSSSTKKTQLQLEHLLLDLQMILNGIQSMHIDATLYTESDVHPSCKVTAMKCFLLELQVISLESGDASIHDTVENLIILANNSLSSNGNVTESGCKECEELEEKNIVEFLNRFITFAQSIISTLT
chain 2: ITCPPPMSVEHADIWVKSYSLYSRERYICNSGFKRKAGTSSLTECVLNKATNVAHWTTPSLKCIREPRGPTIKPCPPCKCPAPNAEGAPSVFIFPPKIKDVLMISLSPIVTCVVVDVSEDDPDVQISWFVNNVEVHTAQTQTHREDYNSTLRVVSALPIQHQDWMSGKEFKCKVNNKQLPSSIERTISKPKGSVRAPQVYVLPPPEEEMTKKQVTLTCMVTDFMPEDIYVEWTNNGKTELNYKNTEPVLDSDGSYFMYSKLRVEKKNWVERNSYSCSVVHEGLHNHHTTKSFSRTPGK
notes: also called IL-2/15 chimera 1-Sushi-Fc
[1]
  EC50 (nM), promotion of Mo7e cell proliferation: 0.319 nM
[2]
  Kd: 0.512 nM
[3]
  binding result: no binding (tested: 100 nM)
[4]
  binding result: no binding (tested: 100 nM)

B2: IL-2/15 chimera 1 (ligand)
chain: APTSSSTKKTQLQLEHLLLDLQMILNGIQSMHIDATLYTESDVHPSCKVTAMKCFLLELQVISLESGDASIHDTVENLIILANNSLSSNGNVTESGCKECEELEEKNIVEFLNRFITFAQSIISTLT
notes: also called modified IL-2 molecule
[1]
  EC50 (nM), promotion of Mo7e cell proliferation: 2.25 nM
[2]
  Kd: 973 nM
[3]
  Kd: 3.89 nM
[4]
  binding result: no binding (tested: 100 nM)

B3: IL-2/15 chimera 2 (ligand)
chain: APTSSSTKKTQLQLEHLLLDLQMILNGIQSMHIDATLYTESDVHPSCKVTAMKCFLLELQVISLESGDASIHDTVENLIILANNSLSSNGNVTESGCKECEELEEKNIVEFLNRWITFAQSIISTLT
notes: Chimera 1 with F at position 115 mutated back to W; position 115 corresponds to position 121 of natural IL-2
[5]
  binding result: binds
